Assay results reported in PMC11292656.

Biological target: sVP40Δ43 R214A (Sudan virus) (UniProt Q5XX06)
Test: SEC

sVP40Δ43 R214A (from UniProt Q5XX06 44-326) (domain or fragment)
octameric percentage of total VP40 AUC: 50%
